From PMC6969506 (Proceedings of the National Academy of Sciences of the …, 2020)

Target: the molecule itself
Experiment: SEC-MALS

B1: CDTb construct lacking the C-terminal RBD2 (residues 212 to 751; CDTb∆RBD2) (domain or fragment)
chain: SDWEDEDLDTDNDNIPDSYERNGYTIKDLIAVKWEDSFAEQGYKKYVSNYLESNTAGDPYTDYEKASGSFDKAIKTEARDPLVAAYPIVGVGMEKLIISTNEHASTDQGKTVSRATTNSKTESNTAGVSVNVGYQNGFTANVTTNYSHTTDNSTAVQDSNGESWNTGLSINKGESAYINANVRYYNTGTAPMYKVTPTTNLVLDGDTLSTIKAQENQIGNNLSPGDTYPKKGLSPLALNTMDQFSSRLIPINYDQLKKLDAGKQIKLETTQVSGNFGTKNSSGQIVTEGNSWSDYISQIDSISASIILDTENESYERRVTAKNLQDPEDKTPELTIGEAIEKAFGATKKDGLLYFNDIPIDESCVELIFDDNTANKIKDSLKTLSDKKIYNVKLERGMNILIKTPTYFTNFDDYNNYPSTWSNVNTTNQDGLQGSANKLNGETKIKIPMSELKPYKRYVFSGYSKDPLTSNSIIVKIKAKEEKTDYLVPEQGYTKFSYEFETTEKDSSNIEITLIGSGTTYLDNLSITELNSTPEILDEP
  stoichiometry N: 7
